# Test results from patent publication US11065314B2, “Peptides and combination of peptides for use in immunotherapy against breast cancer and other cancers” (Immatics Biotechnologies GmbH, priority 2015, dated 2021).
# Square brackets hold non-standard residues; d marks the D form. Ends that are not written are not given here. pT = C[C@@H](OP(=O)(O)O)[C@H](N)C(=O)O
# Target: HLA-A*02:01 (Homo sapiens, UniProt P04439, D140Y/D185E/D98H/E176V/E277Q/G131W/G231S/I119V/I121R/I166T/I218V/L300P/L318F/N151K/N90K/P208A/P217A/Q86G/Q94H/R138H/R169H/T345S)
# Assay: MHC binding assay: UV-ligand exchange with β2m ELISA
# Conditions: binding to HLA-A*02:01, UV-ligand exchange
# From the text: Candidate peptides for T cell based therapies according to the present invention were further tested for their MHC binding capacity (affinity). The individual peptide-MHC complexes were produced by UV-ligand exchange, where a UV-sensitive peptide is cleaved upon UV-irradiation, and exchanged with the peptide of interest as analyzed. Only peptide candidates that can effectively bind and stabilize the peptide-receptive MHC molecules prevent dissociation of the MHC complexes. To determine the yield of the exchange reaction, an ELISA was performed based on the detection of the light chain (β2m) of stabilized MHC complexes. The assay was performed as generally described in Rodenko et al. (Rodenko et al., 2006).
# 96 well MAXISorp plates (NUNC) were coated over night with 2 ug/ml streptavidin in PBS at room temperature, washed 4× and blocked for 1 h at 37° C. in 2% BSA containing blocking buffer. Refolded HLA-A*02:01/MLA-001 monomers served as standards, covering the range of 15-500 ng/ml. Peptide-MHC monomers of the UV-exchange reaction were diluted 100-fold in blocking buffer. Samples were incubated for 1 h at 37° C., washed four times, incubated with 2 ug/ml HRP conjugated anti-β2m for 1 h at 37° C., washed again and detected with TMB solution that is stopped with […]. Absorption was measured at 450 nm. Candidate peptides that show a high exchange yield (preferably higher than 50%, most preferred higher than 75%) are generally preferred for a generation and production of antibodies or fragments thereof, and/or T cell receptors or fragments thereof, as they show sufficient avidity to the MHC molecules and prevent dissociation of the MHC complexes.
row,Sequence,Peptide Exchange (peptide exchange yield)
1,"SLLSEIQAL (listed as Homo sapiens) [SEQ ID NO: 35, HLA-A*02 peptide, source genes AKAP9, PCNT]",“++++” (≥75% = ++++)
2,"GLLPTSVSPRV (listed as Homo sapiens) [SEQ ID NO: 11, HLA-A*02 peptide, source gene SCUBE2]",“++” (≥20% = ++)
3,"GLVQSLTSI (listed as Homo sapiens) [SEQ ID NO: 8, HLA-A*02 peptide, source gene ABCC11]",“++++” (≥75% = ++++)
4,"KLLDMELEM (listed as Homo sapiens) [SEQ ID NO: 39, HLA-A*02 peptide, source gene FAH]",“++++” (≥75% = ++++)
5,"TLLGLAVNV (listed as Homo sapiens) [SEQ ID NO: 36, HLA-A*02 peptide, source gene CHPT1]",“++++” (≥75% = ++++)
6,"GLHSLPPEV (listed as Homo sapiens) [SEQ ID NO: 10, HLA-A*02 peptide, source gene LRRC8E]",“+++” (≥50 = +++)
7,"KQLELELEV (listed as Homo sapiens) [SEQ ID NO: 14, HLA-A*02 peptide, source gene MUC6]",“+++” (≥50 = +++)
8,"FIIPTVATA (listed as Homo sapiens) [SEQ ID NO: 7, HLA-A*02 peptide, source gene ABCC11]",“++++” (≥75% = ++++)
9,"TIASSIEKA (listed as Homo sapiens) [SEQ ID NO: 17, HLA-A*02 peptide, source gene STPG2]",“++” (≥20% = ++)
10,"SLNDQGYLL (listed as Homo sapiens) [SEQ ID NO: 41, HLA-A*02 peptide, source gene MCM8]",“+++” (≥50 = +++)
11,"FLDEEVKLI (listed as Homo sapiens) [SEQ ID NO: 43, HLA-A*02 peptide, source gene FTL]",“+++” (≥50 = +++)
12,"SMMGLLTNL (listed as Homo sapiens) [SEQ ID NO: 16, HLA-A*02 peptide, source gene ESR1]",“++++” (≥75% = ++++)

# Other lines, results leading:
row,Peptide Exchange (peptide exchange yield),Sequence
1,“+++” (≥50 = +++),"FMSKLVPAI (listed as Homo sapiens) [SEQ ID NO: 9, HLA-A*02 peptide, source gene TPRG1]"
2,“++” (≥20% = ++),"SLVEGEAVHLA (listed as Homo sapiens) [SEQ ID NO: 4, HLA-A*02 peptide, source genes TFAP2E, TFAP2A, TFAP2B, TFAP2C]"
3,“++++” (≥75% = ++++),"LLMUVAGLKL (LLM[pT]VAGLKL; listed as Homo sapiens) [SEQ ID NO: 38, HLA-A*02 peptide, source gene PCNXL3; U = phospho-threonine]"
4,“+++” (≥50 = +++),"FSFPVSVGV (listed as Homo sapiens) [SEQ ID NO: 20, HLA-A*02 peptide, source gene DUSP4]"
5,“++” (≥20% = ++),"ALEEQLHQV (listed as Homo sapiens) [SEQ ID NO: 19, HLA-A*02 peptide, source genes KRT25, KRT28, KRT27]"
6,“++” (≥20% = ++),"ILTELPPGV (listed as Homo sapiens) [SEQ ID NO: 33, HLA-A*02 peptide, source gene ZNF407]"
7,“+++” (≥50 = +++),"SLFPSLVVV (listed as Homo sapiens) [SEQ ID NO: 15, HLA-A*02 peptide, source gene PLEC]"
8,“+++” (≥50 = +++),"SLAEPRVSV (listed as Homo sapiens) [SEQ ID NO: 27, HLA-A*02 peptide, source gene FASN]"
9,“++” (≥20% = ++),"ALNPVIYTV (listed as Homo sapiens) [SEQ ID NO: 5, HLA-A*02 peptide, source gene DRD4]"
